To fix the notation:
B1: Erk2-binding clone group N (RNF8-FHA domain-modified protein) (designed binder)
chain: GEPGFFVTGDRAGGRSWCLRRVGMSAGWLLLEDGCEVTVGWGGGVTYQLVSKGYLWQRRTNHCVLKQNPEGQWTIMDNKVLGGVWLNRARLEPLRVYSIHQGDYIQLGLRSLLLENAEYEYEVTEEDWETIYPCLSPKNDQMIEKN
notes: Purified protein from E. coli; also called Erk2 clone N; clone N; not shown: N-terminal fusion partner from vector pET-MalStrep (MBP/Strep) and FLAG tag
B2: Erk2-binding clone group F (RNF8-FHA domain-modified protein) (designed binder)
chain: GEPGFFVTGDRAGGRSWCLRRVGMSAGWLLLEDGCEVTVGFGTGVTYQLVSKYLPSWFTYNHCVLKQNPEGQWTIMDNKSLTGVWLNRARLEPLRVYSIHQGDYIQLGSMRHMLENAEYEYEVTEEDWETIYPCLSPKNDQMIEKN
notes: Only tested in the primary screening ELISA (E. coli extract); not shown: N-terminal fusion partner from vector pET-MalStrep (MBP/Strep) and FLAG tag
B3: Erk2-binding clone group I (RNF8-FHA domain-modified protein) (designed binder)
chain: GEPGFFVTGDRAGGRSWCLRRVGMSAGWLLLEDGCEVTVGFGTGVTYQLVSKYLPSWFTYNHCVLKQNPEGQWTIMDNKSLTGVWLNRARLEPLRVYSIHQGDYIQLGSLAANLENAEYEYEVTEEDWETIYPCLSPKNDQMIEKN
notes: as for B2
B4: Erk2-binding clone group M (RNF8-FHA domain-modified protein) (designed binder)
chain: GEPGFFVTGDRAGGRSWCLRRVGMSAGWLLLEDGCEVTVGFGTGVTYQLVSKYLPSWFTYNHCVLKQNPEGQWTIMDNKSLTGVWLNRARLEPLRVYSIHQGDYIQLGALRCRLENAEYEYEVTEEDWETIYPCLSPKNDQMIEKN
notes: as for B2
B5: Erk2-binding clone group L (RNF8-FHA domain-modified protein) (designed binder)
chain: GEPGFFVTGDRAGGRSWCLRRVGMSAGWLLLEDGCEVTVGFGTGVTYQLVSKYLPSWFTYNHCVLKQNPEGQWTIMDNKSLTGVWLNRARLEPLRVYSIHQGDYIQLGAMFSDVENAEYEYEVTEEDWETIYPCLSPKNDQMIEKN
notes: as for B2
B6: Erk2-binding clone group G (RNF8-FHA domain-modified protein) (designed binder)
chain: GEPGFFVTGDRAGGRSWCLRRVGMSAGWLLLEDGCEVTVGFGTGVTYQLVSKYLPSWFTYNHCVLKQNPEGQWTIMDNKSLTGVWLNRARLEPLRVYSIHQGDYIQLGSLPGLAENAEYEYEVTEEDWETIYPCLSPKNDQMIEKN
notes: as for B2
B7: Erk2-binding clone group K (RNF8-FHA domain-modified protein) (designed binder)
chain: GEPGFFVTGDRAGGRSWCLRRVGMSAGWLLLEDGCEVTVGFGTGVTYQLVSKYLPSWFTYNHCVLKQNPEGQWTIMDNKSLTGVWLNRARLEPLRVYSIHQGDYIQLGEDRFGLENAEYEYEVTEEDWETIYPCLSPKNDQMIEKN
notes: as for B2
B8: Erk2-binding clone group H (RNF8-FHA domain-modified protein) (designed binder)
chain: GEPGFFVTGDRAGGRSWCLRRVGMSAGWLLLEDGCEVTVGFGTGVTYQLVSKYLPSWFTYNHCVLKQNPEGQWTIMDNKSLTGVWLNRARLEPLRVYSIHQGDYIQLGLVAYGAENAEYEYEVTEEDWETIYPCLSPKNDQMIEKN
notes: as for B2
B9: Erk2-binding clone group E (RNF8-FHA domain-modified protein) (designed binder)
chain: GEPGFFVTGDRAGGRSWCLRRVGMSAGWLLLEDGCEVTVGFGTGVTYQLVSKYLPSWFTYNHCVLKQNPEGQWTIMDNKSLTGVWLNRARLEPLRVYSIHQGDYIQLGETGLEWENAEYEYEVTEEDWETIYPCLSPKNDQMIEKN
notes: as for B2
B10: Erk2-binding clone group B (RNF8-FHA domain-modified protein) (designed binder)
chain: GEPGFFVTGDRAGGRSWCLRRVGMSAGWLLLEDGCEVTVGFGTGVTYQLVSKYLPSWFTYNHCVLKQNPEGQWTIMDNKSLTGVWLNRARLEPLRVYSIHQGDYIQLGALKQSLENAEYEYEVTEEDWETIYPCLSPKNDQMIEKN
notes: Loop 4 ALKQSL; loops 1-3 as group A; also called Erk2 clone B; not shown: N-terminal fusion partner from vector pET-MalStrep (MBP/Strep) and FLAG tag
B11: Erk2-binding clone group D (RNF8-FHA domain-modified protein) (designed binder)
chain: GEPGFFVTGDRAGGRSWCLRRVGMSAGWLLLEDGCEVTVGFGTGVTYQLVSKYLPSWFTYNHCVLKQNPEGQWTIMDNKSLTGVWLNRARLEPLRVYSIHQGDYIQLGSHKWWVENAEYEYEVTEEDWETIYPCLSPKNDQMIEKN
notes: Loop 4 SHKWWV; loops 1-3 as group A; also called Erk2 clone D; not shown: N-terminal fusion partner from vector pET-MalStrep (MBP/Strep) and FLAG tag
B12: Erk2-binding clone group A (RNF8-FHA domain-modified protein) (designed binder)
chain: GEPGFFVTGDRAGGRSWCLRRVGMSAGWLLLEDGCEVTVGFGTGVTYQLVSKYLPSWFTYNHCVLKQNPEGQWTIMDNKSLTGVWLNRARLEPLRVYSIHQGDYIQLGGIWSDLENAEYEYEVTEEDWETIYPCLSPKNDQMIEKN
notes: Expressed from pET-MalStrep in E. coli; also called Erk2 clone A; not shown: N-terminal fusion partner from E. coli vector pET-MalStrep (MBP, purified on MBPTrap)
B13: Erk2-binding clone group C (RNF8-FHA domain-modified protein) (designed binder)
chain: GEPGFFVTGDRAGGRSWCLRRVGMSAGWLLLEDGCEVTVGFGTGVTYQLVSKYLPSWFTYNHCVLKQNPEGQWTIMDNKSLTGVWLNRARLEPLRVYSIHQGDYIQLGAMTTSYENAEYEYEVTEEDWETIYPCLSPKNDQMIEKN
notes: Loop 4 AMTTSY; loops 1-3 as group A; also called Erk2 clone C; not shown: N-terminal fusion partner from vector pET-MalStrep (MBP/Strep) and FLAG tag
B14: Trx-binding clone group A (RNF8-FHA domain-modified protein) (designed binder)
chain: GEPGFFVTGDRAGGRSWCLRRVGMSAGWLLLEDGCEVTVGFVPGVTYQLVSKVLFAEKNANHCVLKQNPEGQWTIMDNKVWNGVWLNRARLEPLRVYSIHQGDYIQLGQVSPLGENAEYEYEVTEEDWETIYPCLSPKNDQMIEKN
notes: also called Trx clone A; not shown: N-terminal fusion partner from vector pET-MalStrep (MBP/Strep) and FLAG tag
B15: Trx-binding clone group D (RNF8-FHA domain-modified protein) (designed binder)
chain: GEPGFFVTGDRAGGRSWCLRRVGMSAGWLLLEDGCEVTVGFVPGVTYQLVSKVLFAEKNANHCVLKQNPEGQWTIMDNKVWNGVWLNRARLEPLRVYSIHQGDYIQLGRGCLGLENAEYEYEVTEEDWETIYPCLSPKNDQMIEKN
notes: Loop 4 RGCLGL; loops 1-3 as Trx group A; not shown: N-terminal fusion partner from vector pET-MalStrep (MBP/Strep) and FLAG tag
B16: Trx-binding clone group C (RNF8-FHA domain-modified protein) (designed binder)
chain: GEPGFFVTGDRAGGRSWCLRRVGMSAGWLLLEDGCEVTVGFVPGVTYQLVSKVLFAEKNANHCVLKQNPEGQWTIMDNKVWNGVWLNRARLEPLRVYSIHQGDYIQLGGVFRKGENAEYEYEVTEEDWETIYPCLSPKNDQMIEKN
notes: Loop 4 GVFRKG; loops 1-3 as Trx group A; not shown: N-terminal fusion partner from vector pET-MalStrep (MBP/Strep) and FLAG tag
B17: Trx-binding clone group G (RNF8-FHA domain-modified protein) (designed binder)
chain: GEPGFFVTGDRAGGRSWCLRRVGMSAGWLLLEDGCEVTVGFLPGVTYQLVSKPMRREKNMNHCVLKQNPEGQWTIMDNKVRIGVWLNRARLEPLRVYSIHQGDYIQLGQVSPLGENAEYEYEVTEEDWETIYPCLSPKNDQMIEKN
notes: not shown: N-terminal fusion partner from vector pET-MalStrep (MBP/Strep) and FLAG tag
B18: Trx-binding clone group H (RNF8-FHA domain-modified protein) (designed binder)
chain: GEPGFFVTGDRAGGRSWCLRRVGMSAGWLLLEDGCEVTVGSDWGVTYQLVSKRWLGNVVFNHCVLKQNPEGQWTIMDNKAGHGVWLNRARLEPLRVYSIHQGDYIQLGEPSSLHENAEYEYEVTEEDWETIYPCLSPKNDQMIEKN
notes: as for B17
B19: Trx clone A expressed from pcDNA3.1-RNF8-V5/His in HEK293T cells (designed binder)
chain: GEPGFFVTGDRAGGRSWCLRRVGMSAGWLLLEDGCEVTVGFVPGVTYQLVSKVLFAEKNANHCVLKQNPEGQWTIMDNKVWNGVWLNRARLEPLRVYSIHQGDYIQLGQVSPLGENAEYEYEVTEEDWETIYPCLSPKNDQMIEKN
notes: Control clone in the pull-down of endogenous Erk1/2; not shown: C-terminal V5 and His tags of vector pcDNA3.1-V5/His

In the first assay the target is T1, human Erk2 (extracellular signal-regulated kinase 2), purchased from Sigma (human, UniProt P28482 1-360, limits assumed).
T1 construct: Biotinylated with EZ-Link NHS-PEO4-Biotin for selection and for SPR (SA sensor chip); immobilised directly on the plate for ELISA; also called recombinant Erk2 protein; Erk2 protein
T1 sequence (P28482 whole entry): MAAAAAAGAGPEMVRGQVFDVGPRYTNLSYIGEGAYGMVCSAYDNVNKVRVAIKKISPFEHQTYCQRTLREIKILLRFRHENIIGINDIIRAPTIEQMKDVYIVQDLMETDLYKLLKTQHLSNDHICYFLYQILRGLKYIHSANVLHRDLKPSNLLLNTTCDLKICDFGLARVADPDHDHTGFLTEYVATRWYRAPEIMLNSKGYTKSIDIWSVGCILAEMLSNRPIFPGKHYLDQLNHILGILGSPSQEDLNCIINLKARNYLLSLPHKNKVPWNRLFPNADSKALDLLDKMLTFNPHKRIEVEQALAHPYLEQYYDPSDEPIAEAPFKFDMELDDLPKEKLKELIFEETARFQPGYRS
Nature of the assay: SPR (BIACORE 3000), biotinylated Erk2 on SA sensor chip.
Usually Kd stands for the equilibrium constant for the complex coming apart. A high value points to weaker binding. In the case of B1, the Kd was 30 nM.

The next assay deals with T1, human Erk2 (extracellular …). Put plainly: primary screening ELISA, E. coli extract on immobilised antigen, anti-FLAG-HRP.
As to B2, the binding result is “binds”.
As to B3, the binding result is given as “binds”.
Still for that read-out and setting: then B4, with “binds”.
Regarding B5, the binding result is on record as “binds”.
B6: the binding result is “binds”.
As to B7, the binding result is on record as “binds”.
On the same count and under the same terms, then B8, with “binds”; and B9, with “binds”.

The target is the same in another assay. Put plainly: ELISA, purified clone 500 ng/well on immobilised antigen, anti-FLAG-HRP detection. Background: In an ELISA, binding on a coated surface is turned into a signal by an enzyme label.
With B1, the “ELISA (S/N)” value amounted to 12.6 S/N.
As for B10, the “ELISA (S/N)” value stood at 30 S/N.
The same measure, in the same setting: then B11, with 13.6 S/N; and B12, with 30 S/N.
Turning to B13, the “ELISA (S/N)” value worked out at 12 S/N.

In another assay the target is T2, Escherichia coli thioredoxin, purchased from Sigma (Escherichia coli, UniProt P0AA25 2-109 = thioredoxin).
T2 construct: Immobilised on the plate for ELISA; also called Trx
T2 sequence (P0AA25 2-109 limits assumed): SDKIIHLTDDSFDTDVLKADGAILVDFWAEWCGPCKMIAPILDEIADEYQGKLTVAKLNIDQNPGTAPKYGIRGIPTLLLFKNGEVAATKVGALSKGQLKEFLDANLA
The assay is described as above.
For the molecule B14, the “ELISA (S/N)” value is 30.5 S/N.
For the molecule B15, the “ELISA (S/N)” value was 4.7 S/N.
Take B16: the “ELISA (S/N)” value is 4.4 S/N.
For B17, the “ELISA (S/N)” value was found to be 22.2 S/N.
Consider B18, for which the “ELISA (S/N)” value was found to be 5.7 S/N.

The target in the next assay is T3, endogenous Erk1 of HEK293T cells (UniProt P27361 2-379).
T3 construct: Endogenous intracellular protein, not a recombinant construct; also called Erk1/2
T3 sequence (P27361 2-379 limits assumed): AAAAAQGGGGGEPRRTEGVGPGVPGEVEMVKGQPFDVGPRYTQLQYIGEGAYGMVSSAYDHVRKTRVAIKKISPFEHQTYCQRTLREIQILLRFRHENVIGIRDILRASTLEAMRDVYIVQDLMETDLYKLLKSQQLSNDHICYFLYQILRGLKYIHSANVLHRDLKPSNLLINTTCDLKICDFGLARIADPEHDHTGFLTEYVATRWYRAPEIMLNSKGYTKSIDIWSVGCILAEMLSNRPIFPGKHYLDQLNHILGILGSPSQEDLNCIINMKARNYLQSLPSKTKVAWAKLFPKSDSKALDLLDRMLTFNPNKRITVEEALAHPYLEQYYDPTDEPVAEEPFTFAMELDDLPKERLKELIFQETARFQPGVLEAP
Nature of the assay: His-tag (TALON resin) pull-down from transfected HEK293T cells, Western blot with anti-ERK antibody.
Turning to B19, the binding result is “no binding”.

A further assay deals with T4, endogenous Erk2 of HEK293T cells (UniProt P28482 2-360).
T4 construct: Endogenous intracellular protein, not a recombinant construct; also called Erk1/2
T4 sequence (P28482 2-360 limits assumed): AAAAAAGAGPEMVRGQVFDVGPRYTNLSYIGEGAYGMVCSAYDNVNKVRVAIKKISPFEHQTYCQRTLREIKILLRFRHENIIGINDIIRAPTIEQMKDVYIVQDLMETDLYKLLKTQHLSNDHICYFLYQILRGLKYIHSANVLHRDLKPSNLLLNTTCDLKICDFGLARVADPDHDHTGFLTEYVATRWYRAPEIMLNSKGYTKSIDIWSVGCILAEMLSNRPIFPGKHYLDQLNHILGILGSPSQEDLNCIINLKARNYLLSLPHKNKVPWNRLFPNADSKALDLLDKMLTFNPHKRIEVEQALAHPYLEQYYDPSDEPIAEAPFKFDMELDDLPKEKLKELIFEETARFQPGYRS
The description is as above.
For the molecule B19, the binding result is reported as “no binding”.

Another assay addresses T1, human Erk2 (extracellular …). Put plainly: Immunoprecipitation on anti-FLAG M2 agarose of recombinant Erk2 added to HEK293T cell lysate; SDS-PAGE (CBB staining) and Western blot with anti-ERK antibody. (A western blot detects proteins with antibodies after separation by electrophoresis.)
As to B14, the binding result was “no binding”.

The record behind these values is patent US20130143299A1 (GENEFRONTIER, published 2013).
